US20040171117A1 (GlaxoSmithKline, published 2004)

T1: soluble human RANKL protein (shRANKL) (human, UniProt O14788 140-317, limits assumed, biotinylated at a 20:1 molar ratio of NHS-biotin to protein (competition ELISA only))
T1 construct: also called sRANKL; soluble RANKL
T1 sequence (looked up): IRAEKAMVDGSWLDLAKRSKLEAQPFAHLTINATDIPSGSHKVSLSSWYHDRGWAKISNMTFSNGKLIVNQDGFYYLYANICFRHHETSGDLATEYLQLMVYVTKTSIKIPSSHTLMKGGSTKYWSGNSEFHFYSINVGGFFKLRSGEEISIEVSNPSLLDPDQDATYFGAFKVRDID


How the values were obtained:
[1] = molecular target: T1, soluble human RANKL protein (shRANKL); assay: competition ELISA: inhibition of biotinylated shRANKL binding to coated RANK-Fc
From the text: (§1) A. A competition ELISA was established using a human RANK-Fc fusion protein coated on plastic and a biotinylated soluble human RANKL protein for detection in solution. The RANK-Fc and RANKL proteins were produced in CHO cells and Pichia pastoris, respectively, and purified to >90% homogeneity. The shRANKL (soluble, human RANKL) protein was biotinylated at a 20:1 molar ratio of NHS-biotin to protein (Pierce, Rockford, Ill.) according to th manufacturer's specifications. 96-well ELISA plates were coated overnight at 4° C. with 50 ng/well ([…]) RANK-Fc in pH 9.6 carbonate-bicarbonate buffer. Plates were washed in pH 7.4 Tris-Saline buffer containing 0.1% Tween 20 and blocked for 2 h at RT in 1% BSA/PBS. Competitor proteins (RANK-Fc; death receptor 5 (DR5)-Fc; OPG-Fc; RANKL MAb 19H22) were diluted in 0.01% Tween 20/PBS and added to wells prior to the addition of biotinylated shRANKL (0.43 nM) and the combined samples were incubated for 2 hrs at room temperature. The amount of biotinylated shRANKL bound to coated RANK-Fc (+/−competitor) was measured using alkaline phosphatase conjugated streptavidin. The substrate for signal detection was 105 PNPP (Pierce Inc., Rockford, Ill.) and absorbance measured at 405 nm using a Spectra Max 340 plate reader.

[2] = molecular target: T1, soluble human RANKL protein (shRANKL); assay: cell-based or functional assay
[3] = molecular target: T1, soluble human RANKL protein (shRANKL); assay: not stated there (paragraph 33 defines high affinity as determined by optical biosensor analysis)
[4] = molecular target: T1, soluble human RANKL protein (shRANKL); assay: competition ELISA: soluble RANK-Fc inhibiting biotinylated shRANKL binding to coated RANK-Fc
From the text: as §1

IC50 [1]	Kd [3]	IC50 [4]	Binder	IC50, human monocyte osteoclastogenesis (formation of multinuclear cells) with 50 ng/ml human soluble RANKL plus M-CSF [2]
~0.5 nM	–	–	OPG-Fc (Fc fusion, UniProt O00300 22-201, looked up, Construct not described; also called osteoprotegerin-Fc; not shown: Fc part; not described) ETFPPKYLHYDEETSHQLLCDKCPPGTYLKQHCTAKWKTVCAPCPDHYYTDSWHTSDECLYCSPVCKELQYVKQECNRTHNRVCECKEGRYLEIEFCLKHRSCPPGFGVVQAGTPERNTVCKRCPDGFFSNETSSKAPCRKHTNCSVFGLLLTQKGNATHDNICSGNSESTQKCGIDVTL	–
~2 nM	~0.1 nM	–	RANKL MAb 19H22 (mouse monoclonal antibody 19H22) (antibody, IgG2b, V domains shown, also called 19H22 MAb; murine RANKL MAb 19H22) VH: EIQLQQSGAELVNPGASVKLSCTASGFNIKGTYMHWVKQRPEQGLEWIGRIDPANGNTKYDPKFQGKATITTDTSPNTAYLQLSSLTSEDTAVYYCTTQFHYYGYGGVYWGQGTLVTVSA VL: QIVLTQSPAIMSASPGEKVTMTCSASSSVSYMYWYQQKPGSSPRLLIYDTSNLASGVPVRFSGSGSGTSYSLTISRMEAEDAATYYCQQWSNFPLTFGAGTKLELKR	~4 µg/mL
–	–	~6 nM	human RANK-Fc fusion protein (Fc fusion, UniProt Q9Y6Q6 30-212, looked up, Produced in CHO cells; not shown: Fc part) IAPPCTSEKHYEHLGRCCNKCEPGKYMSSKCTTTSDSVCLPCGPDEYLDSWNEEDKCLLHKVCDTGKALVAVVAGNSTTPRRCACTAGYHWSQDCECCRRNTECAPGLGAQHPLQLNKDTVCKPCLAGYFSDAFSSTDKCRPWTNCTFLGKRVEHHGTEKSDAVCSSSLPARKPPNEPHVYLP	~0.5 µg/mL
